Starred links: 1 amine or outer side, 2 acyl side, 3 side chain; linkers in the order of their positions; H or OH if unused. Positions of bridges follow the written chain, without caps; N, C: chain ends. Non-standard residues stand in square brackets, D forms with d. Primed or numbered codes have the meaning given here. PyrS2″ = (S)-3-amino-1-((pent-4-en-1-yloxy)carbonyl)pyrrolidine-3-carboxylic acid (stapling residue), C=CCCCOC(=O)N1CC[C@@](N[*:1])(C(=O)[*:2])C1; B5(4) = 2,2-bis(4-pentenyl)glycine = 2-amino-2-(pent-4-en-1-yl)hept-6-enoic acid (stitching residue), C=CCCCC(CCCC=C)(N[*:1])C(=O)[*:2]; (EtSSpy)GluE = (S)-2-amino-5-oxo-5-(2-(pyridin-2-yldisulfaneyl)ethoxy)pentanoic acid, O=C(CC[C@H](N[*:1])C(=O)[*:2])OCCSSc1ccccn1; TfeGA = (S)-2-amino-3-((carboxymethyl)(2,2,2-trifluoroethyl)amino)propanoic acid, O=C([C@H](CN(CC(=O)[*:3])CC(F)(F)F)N[*:1])[*:2]; (EtSSPh)GluE = (S)-2-amino-5-oxo-5-(2-(phenyldisulfaneyl)ethoxy)pentanoic acid, O=C(CC[C@H](N[*:1])C(=O)[*:2])OCCSSc1ccccc1; (EtSSPh)AspE = (S)-2-amino-4-oxo-4-(2-(phenyldisulfaneyl)ethoxy)butanoic acid, O=C(C[C@H](N[*:1])C(=O)[*:2])OCCSSc1ccccc1; (EtSSHex)AspE = (S)-2-amino-4-(2-(hexyldisulfaneyl)ethoxy)-4-oxobutanoic acid, CCCCCCSSCCOC(=O)C[C@H](N[*:1])C(=O)[*:2]; B5(19) = 2-amino-2-(pent-4-en-1-yl)hept-6-enoic acid (bis(4-pentenyl)glycine), C=CCCCC(CCCC=C)(N[*:1])C(=O)[*:2]; (Ppz)GlnR = (S)-2-amino-5-oxo-5-(piperazin-1-yl)pentanoic acid, O=C(CC[C@H](N[*:1])C(=O)[*:2])N1CCN([*:3])CC1; (Morph)GlnR = (S)-2-amino-5-morpholino-5-oxopentanoic acid, O=C(CC[C@H](N[*:1])C(=O)[*:2])N1CCOCC1; B5 = 2-amino-2-(pent-4-en-1-yl)hept-6-enoic acid, C=CCCCC(CCCC=C)(N[*:1])C(=O)[*:2]; Phe(4-Cl) = N[C@@H](Cc1ccc(Cl)cc1)C(=O)O; Phe(4-NH2) = Nc1ccc(C[C@H](N)C(=O)O)cc1; Phe(2-F) = N[C@@H](Cc1ccccc1F)C(=O)O; Bta = N[C@@H](Cc1csc2ccccc12)C(=O)O; αAllylPro = C=CC[C@@]1(C(=O)O)CCCN1; tBuAla = CC(C)(C)C[C@H](N)C(=O)O; 3Thi = N[C@@H](Cc1ccsc1)C(=O)O; S8 = C=CCCCCCC[C@](C)(N)C(=O)O
T1: full-length beta-Catenin (Uniprot ID P35222) (Homo sapiens (Human), UniProt P35222 1-781)
T1 construct: the AlphaScreen used a Histidine (Nickel Chelate) detection kit, so a His tag is likely but not described; also called B-Catenin; bCat
T1 sequence: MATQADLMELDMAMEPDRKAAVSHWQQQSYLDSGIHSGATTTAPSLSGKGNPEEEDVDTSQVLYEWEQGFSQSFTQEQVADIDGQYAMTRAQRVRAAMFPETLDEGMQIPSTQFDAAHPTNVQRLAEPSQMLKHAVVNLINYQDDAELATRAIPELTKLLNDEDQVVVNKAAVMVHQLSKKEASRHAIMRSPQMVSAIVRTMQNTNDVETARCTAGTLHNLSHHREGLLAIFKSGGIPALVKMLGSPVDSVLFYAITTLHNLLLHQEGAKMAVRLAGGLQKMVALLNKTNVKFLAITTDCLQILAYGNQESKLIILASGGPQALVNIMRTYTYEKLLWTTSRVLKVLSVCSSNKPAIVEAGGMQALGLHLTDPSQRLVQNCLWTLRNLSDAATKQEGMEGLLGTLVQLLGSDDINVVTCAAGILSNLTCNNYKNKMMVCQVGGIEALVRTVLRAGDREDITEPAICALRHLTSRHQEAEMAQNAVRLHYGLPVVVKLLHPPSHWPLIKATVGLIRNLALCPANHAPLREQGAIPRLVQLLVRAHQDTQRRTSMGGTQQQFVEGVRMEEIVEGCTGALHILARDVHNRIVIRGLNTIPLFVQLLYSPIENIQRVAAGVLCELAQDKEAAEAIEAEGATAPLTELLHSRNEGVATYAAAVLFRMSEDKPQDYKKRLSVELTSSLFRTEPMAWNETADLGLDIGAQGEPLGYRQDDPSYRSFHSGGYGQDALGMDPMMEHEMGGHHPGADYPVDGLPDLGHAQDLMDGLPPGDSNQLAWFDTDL

T2: B-cat-Halo (beta-catenin HaloTag NanoBRET construct expressed in HEK293 cells) (UniProt P35222 1-781)
T2 sequence (looked up): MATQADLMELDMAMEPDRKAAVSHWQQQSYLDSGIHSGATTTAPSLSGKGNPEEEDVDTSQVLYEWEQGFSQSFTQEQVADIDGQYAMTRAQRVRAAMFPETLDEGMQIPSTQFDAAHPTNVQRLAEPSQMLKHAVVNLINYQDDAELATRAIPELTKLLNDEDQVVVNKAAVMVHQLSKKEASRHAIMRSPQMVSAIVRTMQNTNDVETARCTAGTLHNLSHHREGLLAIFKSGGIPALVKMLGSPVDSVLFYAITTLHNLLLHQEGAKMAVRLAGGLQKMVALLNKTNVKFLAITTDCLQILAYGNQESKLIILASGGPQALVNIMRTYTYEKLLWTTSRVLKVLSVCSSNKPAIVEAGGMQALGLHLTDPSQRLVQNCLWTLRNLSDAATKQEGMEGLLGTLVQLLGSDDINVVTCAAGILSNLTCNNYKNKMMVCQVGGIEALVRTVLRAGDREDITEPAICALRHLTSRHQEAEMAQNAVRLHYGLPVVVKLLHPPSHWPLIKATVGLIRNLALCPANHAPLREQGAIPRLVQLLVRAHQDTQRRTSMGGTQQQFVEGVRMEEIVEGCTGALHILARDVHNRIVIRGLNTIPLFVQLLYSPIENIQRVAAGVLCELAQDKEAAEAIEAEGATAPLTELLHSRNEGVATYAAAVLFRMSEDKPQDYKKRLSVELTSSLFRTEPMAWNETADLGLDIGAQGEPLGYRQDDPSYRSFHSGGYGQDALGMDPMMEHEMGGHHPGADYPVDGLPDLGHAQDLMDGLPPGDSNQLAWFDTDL


What was measured:
[1] = molecular target: T1, full-length beta-Catenin (Uniprot ID …); assay: AlphaScreen competition vs biotin-TCF4(10-53) on full-length beta-catenin
Procedure, shortened: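 Titrated peptide was preincubated 15 minutes at 20° C, then donor and acceptor beads were added for 60 minutes at 20° C protected from light. Reads were done in duplicate, and data were fitted to a 1:1 binding model with Hill slope; concentrations are final.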

[2] = molecular target: T1, full-length beta-Catenin (Uniprot ID …); assay: FP competition vs 5FAM-TCF4(10-53) probe on full-length beta-catenin
Experimental: The plate was incubated protected from light for 60 minutes at 20° C. prior to read. Reads were performed on a CLARIOstar plate reader (BMG Labtech) in duplicate, and data were fitted to a 1:1 binding model with hill slope using an in-house script. All provided concentrations are final concentrations.

[3] = molecular target: T2, B-cat-Halo (beta-catenin HaloTag …); assay: cell-based or functional assay

| EC50 [1] [µM] | EC50 [2] [µM] | NanoBRET Abs IC50 [3] [µM] | Binder |
| --- | --- | --- | --- |
| ≥ 10 |  |  | XHAXDEAAFVXFWQ (not fully specified; N-terminal acetyl (Ac); C-terminal amide (NH2); PL3 at 1, B5 at 4, S8 at 11; stapled PL3-B5 and B5-S8, Ac-PL3-His-Ala-B5-Asp-Glu-Ala-Ala-Phe-Val-S8-Phe-Trp-Gln-NH2; stapled peptide composition) [I-314] |
| 3.24 |  |  | XDAXDDAAFVXFWQ (not fully specified; N-terminal acetyl (Ac); C-terminal amide (NH2); PL3 at 1, B5 at 4, S8 at 11, 3ClF (printed 3C1F) at 12; stapled PL3-B5 and B5-S8, Ac-PL3-Asp-Ala-B5-Asp-Asp-Ala-Ala-Phe-Val-S8-3C1F-Trp-Gln-NH2; stapled peptide composition) [I-310] |
| 0.443 | 5 |  | Ac-[αAllylPro]DA[B5]DDAA[Phe(2-F)]V[S8]FWQ-NH2 (staple 1-4, 4-11, Ac-PL3-Asp-Ala-B5-Asp-Asp-Ala-Ala-2FF-Val-S8-Phe-Trp-Gln-NH2; stapled peptide composition) [I-317] |
| 0.04 | 0.13 |  | Ac-[αAllylPro]DA[B5(4)]DDAAFQ[S8]F[Bta]Q-NH2 (staple 1-4, 4-11, Ac-PL3-Asp-Ala-B5-Asp-Asp-Ala-Ala-Phe-Gln-S8-Phe-BztA-Gln-NH2; stapled peptide composition) [I-294] |
|  |  | > 20 | Ac-[αAllylPro][(EtSSHex)AspE][tBuAla][B5(4)]DDAAFL[PyrS2″][3Thi][Bta]Q-NH2 (staple 1-4, 4-11; also: isomer composition, earlier eluting HPLC peak) [I-1959] |
|  |  | 3.8 | Ac-[αAllylPro]D[tBuAla][B5(4)]D[TfeGA]AAF[(Morph)GlnR][PyrS2″][3Thi][Bta]Q-NH2 (staple 1-4, 4-11) [I-1943] |
| 0.181 | 3.12 |  | Ac-[αAllylPro]DA[B5]DDAA[Phe(4-Cl)]V[S8]FWQ-NH2 (staple 1-4, 4-11; not fully specified; printed as Ac-PL3-Asp-Ala-B5-Asp-Asp-Ala-Ala-4C1F-Val-S8-Phe-Trp-Gln-NH2, Ac-PL3-Asp-Ala-B5-Asp-Asp-Ala-Ala-4C1F-Val-S8-Phe-Trp-Gln-NH2; stapled peptide composition) [I-309] |
|  |  | > 20 | Ac-[αAllylPro]D[tBuAla][B5(4)][(EtSSPh)AspE]DAAFL[PyrS2″][3Thi][Bta]Q-NH2 (staple 1-4, 4-11; also: isomer composition, earlier eluting HPLC peak) [I-1954] |
| 1.75 |  |  | Ac-[αAllylPro]DA[B5(4)]D[Phe(4-NH2)]AAFV[S8]FWQ-NH2 (staple 1-4, 4-11, Ac-PL3-Asp-Ala-B5-Asp-4AmPhe-Ala-Ala-Phe-Val-S8-Phe-Trp-Gln-NH2; stapled peptide composition) [I-324] |
|  |  | 12.9 | Ac-[αAllylPro]D[tBuAla][B5(19)]D[TfeGA]AAF[(Ppz)GlnR][PyrS2″][3Thi][Bta]Q-NH2 (staple 1-4, 4-11) [I-1941] |
|  |  | > 20 | Ac-[αAllylPro]D[tBuAla][B5(4)]D[(EtSSPh)GluE]AAFL[PyrS2″][3Thi][Bta]Q-NH2 (staple 1-4, 4-11; also: isomer composition, later eluting HPLC peak) [I-1958] |
|  |  | > 20 | Ac-[αAllylPro][(EtSSPh)AspE][tBuAla][B5(4)]DDAAFL[PyrS2″][3Thi][Bta]Q-NH2 (staple 1-4, 4-11; also: isomer composition, later eluting HPLC peak) [I-1953] |
| 9.9 |  |  | XHAXDEAAFVXFWQ (not fully specified; N-terminal acetyl (Ac); C-terminal amide (NH2); PL3 at 1, B5 at 4, S8 at 11; stapled PL3-B5 and B5-S8, Ac-PL3-His-Ala-B5-Asp-Glu-Ala-Ala-Phe-Val-S8-Phe-Trp-Gln-NH2; stapled peptide composition) [I-315] |
|  |  | > 20 | Ac-[αAllylPro]D[tBuAla][B5(4)]D[(EtSSHex)AspE]AAFL[PyrS2″][3Thi][Bta]Q-NH2 (staple 1-4, 4-11) [I-1962] |
|  |  | > 20 | Ac-[αAllylPro]D[tBuAla][B5(4)]D[(EtSSpy)GluE]AAFL[PyrS2″][3Thi][Bta]Q-NH2 (staple 1-4, 4-11) [I-1951] |
| 0.054 |  |  | XDAXDDAAFVXFWQ (not fully specified; N-terminal acetyl (Ac); C-terminal amide (NH2); PL3 at 1, B5 at 4, S8 at 11, 2FF at 12; stapled PL3-B5 and B5-S8, Ac-PL3-Asp-Ala-B5-Asp-Asp-Ala-Ala-Phe-Val-S8-2FF-Trp-Gln-NH2; stapled peptide composition) [I-319] |
